Biological target: T1, Manduca sexta cadherin protein fragment (CR7–CR12) (Manduca sexta)
T1 construct: Manduca sexta cadherin receptor, fragment CR7–CR12, residues 810–1480; also called cadherin fragment; cadherin receptor fragment
Assay: ELISA; 1 μg of cadherin fragment coated per well; toxin or protoxin dilutions in PBS, 1 h at 37°C; detected with polyclonal anti-Cry1Ab antibody; Scatchard analysis; apparent Kd
Conditions: both partners purified

B1: trypsin-activated Cry1Ab toxin (domain or fragment)
chain: not shown
modifications: Wild-type toxin cut from the protoxin by trypsin. Limits are not given; the conventional Cry1A trypsin core is used (cut after R28, C-terminal end near residue 619). Subspecies is not printed …
B1 showed a Kd of 3.3 ± 0.6 nM.
